Residue numbers refer to the chain shown, from its start. Names and notes keep the numbering of the source.
Legend:
[1] = target: T1, Human GPA33 (Novoprotein), recombinant protein immobilized on CM5 chips (human, UniProt Q99795 22-235); test: SPR (Biacore T100), GPA33 recombinant protein immobilized on CM5 chip, IgG1 flowed over, 25 °C, 1:1 binding model
T1 construct: also called GPA33 recombinant protein; Human Glycoprotein A33
T1 sequence: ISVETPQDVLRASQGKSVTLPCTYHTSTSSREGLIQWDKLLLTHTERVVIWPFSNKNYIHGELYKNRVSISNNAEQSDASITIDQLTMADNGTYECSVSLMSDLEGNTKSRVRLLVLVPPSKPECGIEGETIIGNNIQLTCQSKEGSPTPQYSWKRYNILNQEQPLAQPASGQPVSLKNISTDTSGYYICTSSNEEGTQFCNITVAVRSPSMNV
Experimental: (§1) SPR analysis. Human GPA33 (Novoprotein, Summit, N.J.) was immobilized on CM5 chips. Five concentrations of 2-fold serially diluted huA33 IgG1 or huA33-BsAbs (starting at 20 nM) were flowed over the chip using a Biacore™ T100 system (GE Healthcare, Chicago, Ill.). Binding kinetics of huA33 were measured at 25° C. and binding kinetics of huA33-BsAbs were measured at both 25° C. and 37° C. The sensorgrams were fitted with 1:1 binding model for both to derive kinetic parameters.

[2] = target: T1, Human GPA33 (Novoprotein), recombinant …; test: SPR (Biacore T100), human GPA33 immobilized on CM5 chip, huA33-BsAb flowed over, 37 °C, 1:1 binding model [contd.) C]
Experimental: as §1

[3] = target: T1, Human GPA33 (Novoprotein), recombinant …; test: SPR (Biacore T100), human GPA33 immobilized on CM5 chip, huA33-BsAb flowed over, 25 °C, 1:1 binding model; the KD column head prints no unit, M follows from the ka and kd units [contd.) C]
Experimental: as §1

[4] = target: T1, Human GPA33 (Novoprotein), recombinant …; test: SPR, parental huA33-BsAb, the reference of the column
[5] = target: T1, Human GPA33 (Novoprotein), recombinant …; test: SPR (Biacore T100), human GPA33 immobilized on CM5 chip, huA33-BsAb flowed over, 25 °C, 1:1 binding model [contd.) C]
Experimental: as §1

[6] = target: T1, Human GPA33 (Novoprotein), recombinant …; test: SPR, GPA33 immobilized on CM5 chip, parental huA33-BsAb; temperature not given for this table; the KD column head prints no unit
Experimental: as §1

[7] = target: T2, GPA33 on the surface of human colon and gastric cancer cell lines (human, UniProt Q99795 22-319); test: cell-based or functional assay
T2 sequence (looked up): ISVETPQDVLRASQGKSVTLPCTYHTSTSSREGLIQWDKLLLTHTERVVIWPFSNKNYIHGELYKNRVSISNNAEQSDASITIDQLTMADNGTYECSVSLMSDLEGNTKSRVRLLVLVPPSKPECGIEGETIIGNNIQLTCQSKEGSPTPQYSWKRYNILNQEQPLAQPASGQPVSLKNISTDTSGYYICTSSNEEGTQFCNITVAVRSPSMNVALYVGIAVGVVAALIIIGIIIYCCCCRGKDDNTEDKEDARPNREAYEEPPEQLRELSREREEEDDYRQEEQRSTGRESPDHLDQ

[8] = target: T1, Human GPA33 (Novoprotein), recombinant …; test: SPR (Biacore T100), human GPA33 immobilized on CM5 chip, huA33-BsAb flowed over, 37 °C, 1:1 binding model; the KD column head prints no unit, M follows from the ka and kd units [contd.) C]
Experimental: as §1

[9] = target: T1, Human GPA33 (Novoprotein), recombinant …; test: SPR (Biacore T100), GPA33 immobilized on CM5 chip, antibody flowed, 1:1 model; measured at 25 C and 37 C; bispecific huA33-BsAb; GPA33 immobilized on CM5 chip; apparent affinity (avidity)
Experimental: as §1

[10] = target: T2, GPA33 on the surface of human colon and …; test: FACS staining of SW1222 colon cancer cells with titrated huA33-BsAb, geometric mean MFI [contd.) D]
[11] = target: T1, Human GPA33 (Novoprotein), recombinant …; test: SPR, KD of the parental huA33-BsAb over KD of the clone
Experimental: as §1

[12] = target: T1, Human GPA33 (Novoprotein), recombinant …; test: SPR, GPA33 immobilized on CM5 chip, clone in huA33-BsAb format; temperature not given for this table; the KD column head prints no unit
[13] = target: T1, Human GPA33 (Novoprotein), recombinant …; test: SPR (Biacore T100), GPA33 recombinant protein immobilized on CM5 chip, antibody flowed over
[14] = target: T1, Human GPA33 (Novoprotein), recombinant …; test: SPR (Biacore T100), GPA33 immobilized on CM5 chip, antibody flowed, 1:1 model; parental huA33 IgG, not the bispecific
Experimental: as §1

B1: chimeric chA33-IgG1 (antibody, V domains shown)
VH: EVKLVESGGGLVKPGGSLKLSCAASGFAFSTYDMSWVRQTPEKRLEWVATISSGGSYTYYLDSVKGRFTISRDSARNTLYLQMSSLRSEDTALYYCAPTTVVPFAYWGQGTLVTVSA
VL: DIVMTQSQKFMSTSVGDRVSITCKASQNVRTVVAWYQQKPGQSPKTLIYLASNRHTGVPDRFTGSGSGTDFTLTISNVQSEDLADYFCLQHWSYPLTFGSGTKLEVKR
notes: Chimeric antibody with murine A33 variable domains and a human IgG1 constant region; also called chimeric A33; 3A3-chA33
Question: B1 was tested. Which Kd [1] did it give?
Answer: Its Kd is 0.31 nM.

Question: And the koff [1]?
Answer: The koff was 0.000628 s⁻¹.

Question: What about the kon [1] of the same binder?
Answer: Its kon is 2.03e+06 M⁻¹ s⁻¹.

B2: huA33-BsAb (bispecific antibody, human IgG1, kappa, N297A)
heavy: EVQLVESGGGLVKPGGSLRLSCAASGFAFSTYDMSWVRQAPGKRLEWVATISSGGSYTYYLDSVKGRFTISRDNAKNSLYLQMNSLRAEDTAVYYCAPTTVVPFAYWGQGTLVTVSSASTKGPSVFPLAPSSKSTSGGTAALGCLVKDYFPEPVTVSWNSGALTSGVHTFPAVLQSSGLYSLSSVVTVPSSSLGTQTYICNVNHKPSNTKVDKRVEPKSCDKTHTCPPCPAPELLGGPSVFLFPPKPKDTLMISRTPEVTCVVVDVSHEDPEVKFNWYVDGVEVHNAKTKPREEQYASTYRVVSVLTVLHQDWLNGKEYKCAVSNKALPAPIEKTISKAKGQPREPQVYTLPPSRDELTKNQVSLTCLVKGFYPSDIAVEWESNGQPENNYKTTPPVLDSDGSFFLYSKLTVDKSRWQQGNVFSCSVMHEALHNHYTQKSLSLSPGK
light: DIQMTQSQSSLSTSVGDRVTITCKASQNVRTVVAWYQQKPGKSPKTLIYLASNRHTGVPSRFSGSGSGTEFTLTISNVQPEDFADYFCLQHWSYPLTFGSGTKLEIKRTVAAPSVFIFPPSDEQLKSGTASVVCLLNNFYPREAKVQWKVDNALQSGNSQESVTEQDSKDSTYSLSSTLTLSKADYEKHKVYACEVTHQGLSSPVTKSFNRGECTSGGGGSGGGGSGGGGSQVQLVQSGGGVVQPGRSLRLSCKASGYTFTRYTMHWVRQAPGKCLEWIGYINPSRGYTNYNQKFKDRFTISRDNSKNTAFLQMDSLRPEDTGVYFCARYYDDHYSLDYWGQGTPVTVSSGGGGSGGGGSGGGGSGGGGSGGGGSGGGGSDIQMTQSPSSLSASVGDRVTITCSASSSVSYMNWYQQTPGKAPKRWIYDTSKLASGVPSRFSGSGSGTDYTFTISSLQPEDIATYYCQQWSSNPFTFGCGTKLQITR
notes: huA33 (H2L2) IgG1 with the humanized OKT3 scFv fused to the C-terminus of the light chain via a (G4S)3 linker; also called T-cell engaging huA33-BsAb; humanized A33-bispecific antibody
Question: Which koff [2] does the source give for B2 here?
Answer: Its koff is 0.00167 s⁻¹.

Question: And the kon [2]?
Answer: Its kon is 6.81e+06 M⁻¹ s⁻¹.

Question: And the Kd [3]?
Answer: The Kd was 0.212 nM.

Question: And the “Fold difference/Parental” value [4]?
Answer: Its value is 1 fold.

Question: What about the koff [5] of the same binder?
Answer: Its koff is 0.000478 s⁻¹.

Question: What about the kon [5] of the same binder?
Answer: Its kon is 2.25e+06 M⁻¹ s⁻¹.

Question: What about the Kd [6] of the same binder?
Answer: The Kd was 0.168 nM.

Question: And the “EC50 of T-cell dependent cytotoxicity against Colo205 cells (sorted fresh CD4 memory T cells, E:T=5:1, 48 hours, LDH assay)” value [7]?
Answer: The value was 0.025 nM.

Question: What about the Kd [8] of the same binder?
Answer: Its Kd is 0.245 nM.

Question: What about the Kd [9] of the same binder?
Answer: The Kd was about 0.2 nM.

Question: And the “EC50 (read off the curve)” value [10]?
Answer: Its value is about 0.3 µg.

B3: affinity-matured clone 49 in huA33-BsAb format (bispecific antibody, human IgG1, kappa, N297A)
heavy: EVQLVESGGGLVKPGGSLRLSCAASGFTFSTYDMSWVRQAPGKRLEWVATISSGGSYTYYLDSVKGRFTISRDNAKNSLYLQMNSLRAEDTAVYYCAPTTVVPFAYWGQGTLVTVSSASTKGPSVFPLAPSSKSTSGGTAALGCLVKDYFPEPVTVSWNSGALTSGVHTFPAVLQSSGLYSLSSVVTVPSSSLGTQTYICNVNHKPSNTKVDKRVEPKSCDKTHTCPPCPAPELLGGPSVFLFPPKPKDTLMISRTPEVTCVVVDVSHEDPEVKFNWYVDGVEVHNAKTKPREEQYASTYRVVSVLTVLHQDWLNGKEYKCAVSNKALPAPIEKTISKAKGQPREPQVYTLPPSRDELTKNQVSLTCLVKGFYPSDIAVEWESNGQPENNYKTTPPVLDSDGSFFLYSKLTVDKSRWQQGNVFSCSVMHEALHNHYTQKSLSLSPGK
light: B2 light with V32L
Question: For B3, which “Fold difference/Parental” value [11] is on record?
Answer: The value was 7.6 fold.

Question: And the Kd [12]?
Answer: Its Kd is 0.022 nM.

B4: affinity-matured clone 56 in huA33-BsAb format (bispecific antibody, human IgG1, kappa, N297A)
heavy: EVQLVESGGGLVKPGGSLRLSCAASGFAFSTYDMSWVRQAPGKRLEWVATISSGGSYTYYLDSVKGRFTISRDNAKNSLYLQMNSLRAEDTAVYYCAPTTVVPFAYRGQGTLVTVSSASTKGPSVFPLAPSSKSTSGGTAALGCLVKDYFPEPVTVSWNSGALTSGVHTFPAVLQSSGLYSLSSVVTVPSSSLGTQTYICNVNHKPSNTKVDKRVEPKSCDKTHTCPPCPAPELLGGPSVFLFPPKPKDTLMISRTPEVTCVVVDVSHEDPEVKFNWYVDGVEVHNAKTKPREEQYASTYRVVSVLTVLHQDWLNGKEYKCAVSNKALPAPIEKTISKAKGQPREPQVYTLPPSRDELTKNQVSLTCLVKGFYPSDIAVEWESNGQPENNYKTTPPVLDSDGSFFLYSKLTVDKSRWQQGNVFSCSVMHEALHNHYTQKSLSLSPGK
light: B2 light with V32L, H91Y
Question: How did the “Fold difference/Parental” value [11] turn out when B4 was run?
Answer: The value was 6.9 fold.

Question: And the Kd [12]?
Answer: The Kd was 0.0243 nM.

B5: affinity-matured clone 31 in huA33-BsAb format (bispecific antibody, human IgG1, kappa, N297A)
heavy: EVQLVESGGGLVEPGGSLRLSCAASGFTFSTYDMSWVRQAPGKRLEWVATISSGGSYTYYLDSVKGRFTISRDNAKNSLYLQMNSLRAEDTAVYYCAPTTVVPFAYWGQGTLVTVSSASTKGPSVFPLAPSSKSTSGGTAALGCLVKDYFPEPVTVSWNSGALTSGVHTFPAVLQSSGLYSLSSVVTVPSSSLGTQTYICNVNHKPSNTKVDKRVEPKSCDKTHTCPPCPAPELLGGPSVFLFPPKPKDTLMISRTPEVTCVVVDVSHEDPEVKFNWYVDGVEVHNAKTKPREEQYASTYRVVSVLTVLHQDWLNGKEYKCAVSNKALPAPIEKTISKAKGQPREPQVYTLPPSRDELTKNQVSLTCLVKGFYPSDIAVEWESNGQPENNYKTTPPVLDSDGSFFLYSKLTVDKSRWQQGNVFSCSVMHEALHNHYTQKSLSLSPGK
light: B2 light
Question: What does the source list for B5?
Answer: Fold difference/Parental [11]: 4.3 fold; Kd [12]: 0.0387 nM

B6: affinity-matured clone 53 in huA33-BsAb format (bispecific antibody, human IgG1, kappa, N297A)
heavy: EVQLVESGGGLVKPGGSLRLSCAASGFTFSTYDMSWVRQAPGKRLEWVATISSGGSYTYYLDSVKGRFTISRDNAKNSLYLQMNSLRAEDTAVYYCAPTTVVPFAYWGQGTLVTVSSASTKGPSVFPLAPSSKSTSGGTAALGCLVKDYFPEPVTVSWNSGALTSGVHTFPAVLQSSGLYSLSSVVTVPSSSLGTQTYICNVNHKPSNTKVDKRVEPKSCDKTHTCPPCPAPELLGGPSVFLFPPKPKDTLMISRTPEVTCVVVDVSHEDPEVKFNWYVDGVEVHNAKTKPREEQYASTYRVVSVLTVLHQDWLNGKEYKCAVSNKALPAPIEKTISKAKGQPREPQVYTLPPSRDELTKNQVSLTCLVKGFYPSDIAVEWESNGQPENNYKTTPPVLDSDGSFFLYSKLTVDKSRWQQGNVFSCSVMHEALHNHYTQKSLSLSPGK
light: B2 light with H91Y
Question: Which results are given for B6?
Answer: Fold difference/Parental [11]: 9.6 fold; Kd [12]: 0.0175 nM

B7: affinity-matured clone 48 in huA33-BsAb format (bispecific antibody, human IgG1, kappa, N297A)
heavy: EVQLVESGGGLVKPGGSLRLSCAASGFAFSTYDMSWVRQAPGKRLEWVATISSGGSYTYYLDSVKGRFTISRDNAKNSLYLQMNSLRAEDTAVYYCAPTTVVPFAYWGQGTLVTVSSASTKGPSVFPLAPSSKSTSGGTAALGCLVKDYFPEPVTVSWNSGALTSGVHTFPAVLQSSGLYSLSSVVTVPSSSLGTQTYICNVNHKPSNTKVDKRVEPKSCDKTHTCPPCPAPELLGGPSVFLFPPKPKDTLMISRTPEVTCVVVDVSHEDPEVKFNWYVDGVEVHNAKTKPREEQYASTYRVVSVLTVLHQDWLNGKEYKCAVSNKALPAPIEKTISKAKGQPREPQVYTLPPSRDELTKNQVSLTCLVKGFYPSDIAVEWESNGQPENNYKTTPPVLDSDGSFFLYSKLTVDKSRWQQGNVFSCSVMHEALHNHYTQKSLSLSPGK
light: B2 light with N53D, H91Y
Question: What does the source list for B7?
Answer: Fold difference/Parental [11]: 51 fold; Kd [12]: 0.00329 nM

B8: affinity-matured clone 32 in huA33-BsAb format (bispecific antibody, human IgG1, kappa, N297A)
heavy: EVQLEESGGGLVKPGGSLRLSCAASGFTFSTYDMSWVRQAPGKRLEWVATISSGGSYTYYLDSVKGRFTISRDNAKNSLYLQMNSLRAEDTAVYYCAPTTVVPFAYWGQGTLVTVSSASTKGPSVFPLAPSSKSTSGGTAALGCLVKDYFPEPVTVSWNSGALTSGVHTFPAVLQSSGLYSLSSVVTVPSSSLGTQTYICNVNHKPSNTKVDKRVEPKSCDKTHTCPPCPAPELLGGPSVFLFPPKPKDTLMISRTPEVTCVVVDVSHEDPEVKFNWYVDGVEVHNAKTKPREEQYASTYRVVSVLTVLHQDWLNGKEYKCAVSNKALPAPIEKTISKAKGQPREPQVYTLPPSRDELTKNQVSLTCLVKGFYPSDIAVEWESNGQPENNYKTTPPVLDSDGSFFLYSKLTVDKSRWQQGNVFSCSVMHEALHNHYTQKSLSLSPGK
light: B2 light with H91Y
Question: How did the “Fold difference/Parental” value [11] turn out when B8 was run?
Answer: The value was 29.7 fold.

Question: And the Kd [12]?
Answer: The Kd was 0.00564 nM.

B9: affinity-matured clone 57 in huA33-BsAb format (bispecific antibody, human IgG1, kappa, N297A)
heavy: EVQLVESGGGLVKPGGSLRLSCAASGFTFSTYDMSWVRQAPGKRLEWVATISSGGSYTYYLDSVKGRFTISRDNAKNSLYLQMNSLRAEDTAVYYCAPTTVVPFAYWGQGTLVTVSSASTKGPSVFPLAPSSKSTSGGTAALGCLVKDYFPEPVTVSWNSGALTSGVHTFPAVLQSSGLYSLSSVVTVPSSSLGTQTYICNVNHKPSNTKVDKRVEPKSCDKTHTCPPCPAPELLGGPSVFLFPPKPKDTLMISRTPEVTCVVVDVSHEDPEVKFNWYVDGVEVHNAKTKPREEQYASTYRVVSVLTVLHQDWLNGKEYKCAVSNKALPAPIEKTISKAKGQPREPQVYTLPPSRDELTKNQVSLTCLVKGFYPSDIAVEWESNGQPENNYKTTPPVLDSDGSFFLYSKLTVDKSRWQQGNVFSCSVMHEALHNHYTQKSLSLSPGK
light: B2 light with R18S, F83V, H91Y
Question: B9 was tested. Which “Fold difference/Parental” value [11] did it give?
Answer: The value was 10.7 fold.

Question: And the Kd [12]?
Answer: Its Kd is 0.0156 nM.

B10: huA33-IgG1 (H2L2) (antibody, V domains shown)
VH: EVQLVESGGGLVKPGGSLRLSCAASGFAFSTYDMSWVRQAPGKRLEWVATISSGGSYTYYLDSVKGRFTISRDNAKNSLYLQMNSLRAEDTAVYYCAPTTVVPFAYWGQGTLVTVSS
VL: DIQMTQSQSSLSTSVGDRVTITCKASQNVRTVVAWYQQKPGKSPKTLIYLASNRHTGVPSRFSGSGSGTEFTLTISNVQPEDFADYFCLQHWSYPLTFGSGTKLEIKR
notes: Humanized A33 IgG1, version H2L2; also called 3A3-H2L2; 3A3-H2/L2
Question: Which Kd [13] does the source give for B10 here?
Answer: Its Kd is 0.169 nM.

Question: What about the koff [13] of the same binder?
Answer: Its koff is 0.000363 s⁻¹.

Question: And the kon [13]?
Answer: The kon was 2.15e+06 M⁻¹ s⁻¹.

Question: What about the Kd [14] of the same binder?
Answer: Its Kd is 0.13 nM.

Question: What about the Kd [1] of the same binder?
Answer: Its Kd is 0.169 nM.

Question: And the koff [1]?
Answer: Its koff is 0.000363 s⁻¹.

Question: And the kon [1]?
Answer: Its kon is 2.15e+06 M⁻¹ s⁻¹.

Reference: patent publication US20200291112A1 (Memorial Sloan Kettering, published 2020)
